Measurements from patent US20230331827A1 (MAXION THERAPEUTICS, published 2023).

Biological target: human cMET (human, UniProt P08581 25-932)
Test: phage TRF on cMET

Chain of human cMET (P08581 25-932 limits assumed): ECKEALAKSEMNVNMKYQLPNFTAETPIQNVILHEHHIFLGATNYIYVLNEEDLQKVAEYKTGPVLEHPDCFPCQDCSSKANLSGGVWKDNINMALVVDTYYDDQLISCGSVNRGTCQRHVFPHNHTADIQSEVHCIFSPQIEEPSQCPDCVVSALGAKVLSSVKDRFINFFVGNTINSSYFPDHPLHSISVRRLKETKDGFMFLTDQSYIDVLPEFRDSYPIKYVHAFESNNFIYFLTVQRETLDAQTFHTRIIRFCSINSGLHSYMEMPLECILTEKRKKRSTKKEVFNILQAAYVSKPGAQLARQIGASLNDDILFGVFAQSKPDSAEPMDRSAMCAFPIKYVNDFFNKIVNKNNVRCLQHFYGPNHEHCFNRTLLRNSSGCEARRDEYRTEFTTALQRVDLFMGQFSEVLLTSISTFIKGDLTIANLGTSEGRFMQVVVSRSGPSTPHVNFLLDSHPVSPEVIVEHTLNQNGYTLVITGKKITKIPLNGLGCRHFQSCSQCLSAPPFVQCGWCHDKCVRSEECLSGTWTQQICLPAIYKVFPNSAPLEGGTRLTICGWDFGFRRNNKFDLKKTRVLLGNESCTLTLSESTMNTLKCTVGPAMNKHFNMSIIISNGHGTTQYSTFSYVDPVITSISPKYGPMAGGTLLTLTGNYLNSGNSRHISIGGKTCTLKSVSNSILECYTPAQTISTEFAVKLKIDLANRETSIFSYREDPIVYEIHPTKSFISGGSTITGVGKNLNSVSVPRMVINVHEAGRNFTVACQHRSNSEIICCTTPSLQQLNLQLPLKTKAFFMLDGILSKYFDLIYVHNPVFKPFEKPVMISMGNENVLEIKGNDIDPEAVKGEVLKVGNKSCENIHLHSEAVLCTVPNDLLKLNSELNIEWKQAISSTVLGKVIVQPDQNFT

Row | Binder | TRF signal
1 | KB_A12_cMET_E11 (scFv, V domains shown) VH: EVQLVESGGGLVRPGGSLRLSCAASGFTFSSYAMSWVRQAPGKGLEWVSAISGSGGSTYYADSVKGRFTISRDNTKNSLYLQMTSLRADDTAFYYCVKDFGPGYGTGWFDYWGPGTLVTVSS VL: AVNWYQQLPGKAPKLLIYAAGRCAKKSGTGRCKQDSDCLAGCVCGPNGFCGANSGVSDRFSAAKSGTSASLAINGLRSEDEADYYCAAWDDSLNGYVFGTGTKLTVLG | 158000
2 | KB_A12_cMET_E01 (scFv, V domains shown) VH: EVQLVESGGGLVRPGGSLRLSCAASGFTFSSYAMSWVRQAPGKGLEWVSAISGSGGSTYYADSVKGRFTISRDNTKNSLYLQMTSLRADDTAFYYCVKDFGPGYGTGWFDYWGPGTLVTVSS VL: AVNWYQQLPGKAPKLLIYAAGRCNLTSGTGRCKQDSDCLAGCVCGPNGFCGANSGVSDRFSAAKSGTSASLAINGLRSEDEADYYCAAWDDSLNGYVFGTGTKLTVLG | 22400
3 | KB_A12_cMET_E02 (scFv, V domains shown) VH: EVQLVESGGGLVRPGGSLRLSCAASGFTFSSYAMSWVRQAPGKGLEWVSAISGSGGSTYYADSVKGRFTISRDNTKNSLYLQMTSLRADDTAFYYCVKDFGPGYGTGWFDYWGPGTLVTVSS VL: AVNWYQQLPGKAPKLLIYAAGRCRKKSGANRCKQDSDCLAGCVCGPNGFCGANSGVSDRFSAAKSGTSASLAINGLRSEDEADYYCAAWDDSLNGYVFGTGTKLTVLG | 9480
4 | KB_A12_cMET_E04 (scFv, V domains shown) VH: EVQLVESGGGLVRPGGSLRLSCAASGFTFSSYAMSWVRQAPGKGLEWVSAISGSGGSTYYADSVKGRFTISRDNTKNSLYLQMTSLRADDTAFYYCVKDFGPGYGTGWFDYWGPGTLVTVSS VL: AVNWYQQLPGKAPKLLIYAAGRCGHLSGTGRCKQDSDCLAGCVCGPNGFCGANSGVSDRFSAAKSGTSASLAINGLRSEDEADYYCAAWDDSLNGYVFGTGTKLTVLG | 41300
5 | KB_A12_cMET_E05 (scFv, V domains shown) VH: EVQLVESGGGLVRPGGSLRLSCAASGFTFSSYAMSWVRQAPGKGLEWVSAISGSGGSTYYADSVKGRFTISRDNTKNSLYLQMTSLRADDTAFYYCVKDFGPGYGTGWFDYWGPGTLVTVSS VL: AVNWYQQLPGKAPKLLIYAAGRCDRKAGTGRCKQDSDCLAGCVCGPNGFCGANSGVSDRFSAAKSGTSASLAINGLRSEDEADYYCAAWDDSLNGYVFGTGTKLTVLG | 116000
6 | KB_A12_cMET_E12 (scFv, V domains shown) VH: EVQLVESGGGLVRPGGSLRLSCAASGFTFSSYAMSWVRQAPGKGLEWVSAISGSGGSTYYADSVKGRFTISRDNTKNSLYLQMTSLRADDTAFYYCVKDFGPGYGTGWFDYWGPGTLVTVSS VL: AVNWYQQLPGKAPKLLIYAAGRCAKRSGTGRCKQDSDCLAGCVCGPNGFCGANSGVSDRFSAAKSGTSASLAINGLRSEDEADYYCAAWDDSLNGYVFGTGTKLTVLG | 95900
7 | KB_A12_cMET_F02 (scFv, V domains shown) VH: EVQLVESGGGLVRPGGSLRLSCAASGFTFSSYAMSWVRQAPGKGLEWVSAISGSGGSTYYADSVKGRFTISRDNTKNSLYLQMTSLRADDTAFYYCVKDFGPGYGTGWFDYWGPGTLVTVSS VL: AVNWYQQLPGKAPKLLIYAAGRCGRASGTGRCKQDSDCLAGCVCGPNGFCGANSGVSDRFSAAKSGTSASLAINGLRSEDEADYYCAAWDDSLNGYVFGTGTKLTVLG | 98500
8 | KB_A12_cMET_F06 (scFv, V domains shown) VH: EVQLVESGGGLVRPGGSLRLSCAASGFTFSSYAMSWVRQAPGKGLEWVSAISGSGGSTYYADSVKGRFTISRDNTKNSLYLQMTSLRADDTAFYYCVKDFGPGYGTGWFDYWGPGTLVTVSS VL: AVNWYQQLPGKAPKLLIYAAGRCPHQTGTGRCKQDSDCLAGCVCGPNGFCGANSGVSDRFSAAKSGTSASLAINGLRSEDEADYYCAAWDDSLNGYVFGTGTKLTVLG | 56200
9 | KB_A12_cMET_F12 (scFv, V domains shown) VH: EVQLVESGGGLVRPGGSLRLSCAASGFTFSSYAMSWVRQAPGKGLEWVSAISGSGGSTYYADSVKGRFTISRDNTKNSLYLQMTSLRADDTAFYYCVKDFGPGYGTGWFDYWGPGTLVTVSS VL: AVNWYQQLPGKAPKLLIYAAGRCKAQSGSGRCKQDSDCLAGCVCGPNGFCGANSGVSDRFSAAKSGTSASLAINGLRSEDEADYYCAAWDDSLNGYVFGTGTKLTVLG | 119000
10 | KB_A12_cMET_G01 (scFv, V domains shown) VH: EVQLVESGGGLVRPGGSLRLSCAASGFTFSSYAMSWVRQAPGKGLEWVSAISGSGGSTYYADSVKGRFTISRDNTKNSLYLQMTSLRADDTAFYYCVKDFGPGYGTGWFDYWGPGTLVTVSS VL: AVNWYQQLPGKAPKLLIYAAGRCQRQSGTGRCKQDSDCLAGCVCGPNGFCGANSGVSDRFSAAKSGTSASLAINGLRSEDEADYYCAAWDDSLNGYVFGTGTKLTVLG | 98900
11 | KB_A12_cMET_G06 (scFv, V domains shown) VH: EVQLVESGGGLVRPGGSLRLSCAASGFTFSSYAMSWVRQAPGKGLEWVSAISGSGGSTYYADSVKGRFTISRDNTKNSLYLQMTSLRADDTAFYYCVKDFGPGYGTGWFDYWGPGTLVTVSS VL: AVNWYQQLPGKAPKLLIYAAGRCNKSGGTGRCKQDSDCLAGCVCGPNGFCGANSGVSDRFSAAKSGTSASLAINGLRSEDEADYYCAAWDDSLNGYVFGTGTKLTVLG | 62100
12 | KB_A12_cMET_G07 (scFv, V domains shown) VH: EVQLVESGGGLVRPGGSLRLSCAASGFTFSSYAMSWVRQAPGKGLEWVSAISGSGGSTYYADSVKGRFTISRDNTKNSLYLQMTSLRADDTAFYYCVKDFGPGYGTGWFDYWGPGTLVTVSS VL: AVNWYQQLPGKAPKLLIYAAGRCRASSGTGRCKQDSDCLAGCVCGPNGFCGANSGVSDRFSAAKSGTSASLAINGLRSEDEADYYCAAWDDSLNGYVFGTGTKLTVLG | 58000
13 | KB_A12_cMET_G08 (scFv, V domains shown) VH: EVQLVESGGGLVRPGGSLRLSCAASGFTFSSYAMSWVRQAPGKGLEWVSAISGSGGSTYYADSVKGRFTISRDNTKNSLYLQMTSLRADDTAFYYCVKDFGPGYGTGWFDYWGPGTLVTVSS VL: AVNWYQQLPGKAPKLLIYAAGRCARLSGSGRCKQDSDCLAGCVCGPNGFCGANSGVSDRFSAAKSGTSASLAINGLRSEDEADYYCAAWDDSLNGYVFGTGTKLTVLG | 27900
14 | KB_A12_cMET_G10 (scFv, V domains shown) VH: EVQLVESGGGLVRPGGSLRLSCAASGFTFSSYAMSWVRQAPGKGLEWVSAISGSGGSTYYADSVKGRFTISRDNTKNSLYLQMTSLRADDTAFYYCVKDFGPGYGTGWFDYWGPGTLVTVSS VL: AVNWYQQLPGKAPKLLIYAAGRCEKHSGTGRCKQDSDCLAGCVCGPNGFCGANSGVSDRFSAAKSGTSASLAINGLRSEDEADYYCAAWDDSLNGYVFGTGTKLTVLG | 64800
15 | KB_A12_cMET_H01 (scFv, V domains shown) VH: EVQLVESGGGLVRPGGSLRLSCAASGFTFSSYAMSWVRQAPGKGLEWVSAISGSGGSTYYADSVKGRFTISRDNTKNSLYLQMTSLRADDTAFYYCVKDFGPGYGTGWFDYWGPGTLVTVSS VL: AVNWYQQLPGKAPKLLIYAAGRCHRMSGTGRCKQDSDCLAGCVCGPNGFCGANSGVSDRFSAAKSGTSASLAINGLRSEDEADYYCAAWDDSLNGYVFGTGTKLTVLG | 132000
16 | KB_A12_cMET_H02 (scFv, V domains shown) VH: EVQLVESGGGLVRPGGSLRLSCAASGFTFSSYAMSWVRQAPGKGLEWVSAISGSGGSTYYADSVKGRFTISRDNTKNSLYLQMTSLRADDTAFYYCVKDFGPGYGTGWFDYWGPGTLVTVSS VL: AVNWYQQLPGKAPKLLIYAAGRCAKRTGTGRCKQDSDCLAGCVCGPNGFCGANSGVSDRFSAAKSGTSASLAINGLRSEDEADYYCAAWDDSLNGYVFGTGTKLTVLG | 35400
17 | KB_A12_cMET_H03 (scFv, V domains shown) VH: EVQLVESGGGLVRPGGSLRLSCAASGFTFSSYAMSWVRQAPGKGLEWVSAISGSGGSTYYADSVKGRFTISRDNTKNSLYLQMTSLRADDTAFYYCVKDFGPGYGTGWFDYWGPGTLVTVSS VL: AVNWYQQLPGKAPKLLIYAAGRCRGMTGVGRCKQDSDCLAGCVCGPNGFCGANSGVSDRFSAAKSGTSASLAINGLRSEDEADYYCAAWDDSLNGYVFGTGTKLTVLG | 54200
18 | KB_A12_cMET_H04 (scFv, V domains shown) VH: EVQLVESGGGLVRPGGSLRLSCAASGFTFSSYAMSWVRQAPGKGLEWVSAISGSGGSTYYADSVKGRFTISRDNTKNSLYLQMTSLRADDTAFYYCVKDFGPGYGTGWFDYWGPGTLVTVSS VL: AVNWYQQLPGKAPKLLIYAAGRCPQMTGTGRCKQDSDCLAGCVCGPNGFCGANSGVSDRFSAAKSGTSASLAINGLRSEDEADYYCAAWDDSLNGYVFGTGTKLTVLG | 113000
19 | KB_A12_cMET_H05 (scFv, V domains shown) VH: EVQLVESGGGLVRPGGSLRLSCAASGFTFSSYAMSWVRQAPGKGLEWVSAISGSGGSTYYADSVKGRFTISRDNTKNSLYLQMTSLRADDTAFYYCVKDFGPGYGTGWFDYWGPGTLVTVSS VL: AVNWYQQLPGKAPKLLIYAAGRCNRASGAGRCKQDSDCLAGCVCGPNGFCGANSGVSDRFSAAKSGTSASLAINGLRSEDEADYYCAAWDDSLNGYVFGTGTKLTVLG | 153000
20 | KB_A12_cMET_F10 (scFv, V domains shown) VH: EVQLVESGGGLVRPGGSLRLSCAASGFTFSSYAMSWVRQAPGKGLEWVSAISGSGGSTYYADSVKGRFTISRDNTKNSLYLQMTSLRADDTAFYYCVKDFGPGYGTGWFDYWGPGTLVTVSS VL: AVNWYQQLPGKAPKLLIYAAGRCRSLMSGTGRCKQDSDCLAGCVCGPNGFCGANSGVSDRFSAAKSGTSASLAINGLRSEDEADYYCAAWDDSLNGYVFGTGTKLTVLG | 51300
21 | KB_A12_cMET_E07 (scFv, V domains shown) VH: EVQLVESGGGLVRPGGSLRLSCAASGFTFSSYAMSWVRQAPGKGLEWVSAISGSGGSTYYADSVKGRFTISRDNTKNSLYLQMTSLRADDTAFYYCVKDFGPGYGTGWFDYWGPGTLVTVSS VL: AVNWYQQLPGKAPKLLIYAAGRCPKRHTGTGRCKQDSDCLAGCVCGPNGFCGANSGVSDRFSAAKSGTSASLAINGLRSEDEADYYCAAWDDSLNGYVFGTGTKLTVLG | 95300
22 | KB_A12_cMET_F05 (scFv, V domains shown) VH: EVQLVESGGGLVRPGGSLRLSCAASGFTFSSYAMSWVRQAPGKGLEWVSAISGSGGSTYYADSVKGRFTISRDNTKNSLYLQMTSLRADDTAFYYCVKDFGPGYGTGWFDYWGPGTLVTVSS VL: AVNWYQQLPGKAPKLLIYAAGRCKRLMSGAGRCKQDSDCLAGCVCGPNGFCGANSGVSDRFSAAKSGTSASLAINGLRSEDEADYYCAAWDDSLNGYVFGTGTKLTVLG | 59600
